The source of these data is PMC8591511, “Flexible open conformation of the AP-3 complex explains its role in cargo recruitment at the Golgi” (The Journal of Biological Chemistry, 2021).

Test [1] addresses T1, GFP-tagged AP-3 complex (Apl6 tagged C-terminally with mGFP) (S. cerevisiae, UniProt Q08951 1-932; P46682 1-809; P38153 1-483; P47064 1-194).
T1 construct: Apl5, δ-subunit of the yeast AP-3 complex; Apl6, β3-subunit of the yeast AP-3 complex; Apm3, μ3-subunit of the yeast AP-3 complex; Aps3, σ-subunit of the yeast AP-3 complex; also called GFP-AP-3; source: yeast strain with Apl6 fused to GFP, purified; labelled via anti-GFP nanobody carrying DY647 or Alexa Fluor 568; not shown: mGFP, C-terminal, kept; copies: + + +
In words: single-molecule TIRF microscopy on polymer-supported membranes; polymer-supported membranes (Golgi mixture with 1 mol% PI4P) with or without Arf1 (10 nM), Sec7ΔC (10 nM) and 400 μM GTPγS, or reconstituted Vam3; GFP-tagged AP-3 (2 nM) labelled with anti-GFP nanobody-Dy647; room temperature; monitored 45 min. Particulars: both partners purified.

Test [2] addresses T1, GFP-tagged AP-3 complex (Apl6 tagged …). In words: single-molecule tracking of cargo mobility (TIRF microscopy); labelled Vam3 in polymer-supported membranes tracked before and after the addition of AP-3; without Arf1 and Sec7. The following applies: both partners purified.

T1 sequence (Q08951 whole entry, chain 1 of 4, the tested form may be a part): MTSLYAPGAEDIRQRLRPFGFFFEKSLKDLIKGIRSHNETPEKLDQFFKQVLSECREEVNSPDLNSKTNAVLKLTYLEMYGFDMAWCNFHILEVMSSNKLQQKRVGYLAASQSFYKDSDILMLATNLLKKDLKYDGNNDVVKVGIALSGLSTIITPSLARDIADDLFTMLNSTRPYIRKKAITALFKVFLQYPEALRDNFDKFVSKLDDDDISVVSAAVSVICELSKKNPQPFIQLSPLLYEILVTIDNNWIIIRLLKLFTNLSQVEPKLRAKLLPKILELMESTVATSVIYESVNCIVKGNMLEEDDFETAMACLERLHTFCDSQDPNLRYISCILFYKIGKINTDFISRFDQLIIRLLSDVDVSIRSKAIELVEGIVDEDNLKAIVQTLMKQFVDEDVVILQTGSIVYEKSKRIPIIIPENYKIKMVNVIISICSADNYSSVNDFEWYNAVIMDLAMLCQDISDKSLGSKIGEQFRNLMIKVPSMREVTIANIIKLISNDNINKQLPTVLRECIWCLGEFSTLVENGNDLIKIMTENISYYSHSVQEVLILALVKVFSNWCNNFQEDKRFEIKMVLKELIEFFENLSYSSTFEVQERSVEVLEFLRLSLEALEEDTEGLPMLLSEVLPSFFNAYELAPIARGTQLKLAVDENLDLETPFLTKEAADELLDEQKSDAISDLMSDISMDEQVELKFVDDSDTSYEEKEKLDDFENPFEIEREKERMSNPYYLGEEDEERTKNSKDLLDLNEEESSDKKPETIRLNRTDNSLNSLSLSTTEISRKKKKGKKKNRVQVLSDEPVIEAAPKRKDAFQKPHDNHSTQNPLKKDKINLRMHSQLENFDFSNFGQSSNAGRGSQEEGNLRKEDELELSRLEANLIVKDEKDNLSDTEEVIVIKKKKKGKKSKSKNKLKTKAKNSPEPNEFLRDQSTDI
T1 sequence (P46682 whole entry, chain 2 of 4, the tested form may be a part): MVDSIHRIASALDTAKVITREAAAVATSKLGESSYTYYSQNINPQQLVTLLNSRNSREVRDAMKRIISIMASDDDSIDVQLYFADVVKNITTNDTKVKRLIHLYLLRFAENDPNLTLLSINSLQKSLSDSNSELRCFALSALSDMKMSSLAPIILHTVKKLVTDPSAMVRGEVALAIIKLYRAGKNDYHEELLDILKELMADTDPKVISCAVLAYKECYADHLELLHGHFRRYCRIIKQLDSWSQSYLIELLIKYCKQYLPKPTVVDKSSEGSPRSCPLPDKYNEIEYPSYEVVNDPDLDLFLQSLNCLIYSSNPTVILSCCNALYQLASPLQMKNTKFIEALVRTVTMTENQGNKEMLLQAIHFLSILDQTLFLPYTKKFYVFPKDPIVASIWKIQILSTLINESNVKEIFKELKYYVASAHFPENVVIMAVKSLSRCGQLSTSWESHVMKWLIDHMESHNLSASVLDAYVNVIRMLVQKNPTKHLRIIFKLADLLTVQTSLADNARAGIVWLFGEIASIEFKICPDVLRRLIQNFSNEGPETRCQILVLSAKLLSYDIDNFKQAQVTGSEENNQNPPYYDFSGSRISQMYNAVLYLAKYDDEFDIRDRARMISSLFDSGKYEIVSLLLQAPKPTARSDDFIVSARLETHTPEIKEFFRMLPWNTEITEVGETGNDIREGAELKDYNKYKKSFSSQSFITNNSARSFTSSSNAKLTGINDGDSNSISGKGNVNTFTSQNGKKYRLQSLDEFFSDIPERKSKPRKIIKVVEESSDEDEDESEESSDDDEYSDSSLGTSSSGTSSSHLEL
T1 sequence (P38153 whole entry, chain 3 of 4, the tested form may be a part): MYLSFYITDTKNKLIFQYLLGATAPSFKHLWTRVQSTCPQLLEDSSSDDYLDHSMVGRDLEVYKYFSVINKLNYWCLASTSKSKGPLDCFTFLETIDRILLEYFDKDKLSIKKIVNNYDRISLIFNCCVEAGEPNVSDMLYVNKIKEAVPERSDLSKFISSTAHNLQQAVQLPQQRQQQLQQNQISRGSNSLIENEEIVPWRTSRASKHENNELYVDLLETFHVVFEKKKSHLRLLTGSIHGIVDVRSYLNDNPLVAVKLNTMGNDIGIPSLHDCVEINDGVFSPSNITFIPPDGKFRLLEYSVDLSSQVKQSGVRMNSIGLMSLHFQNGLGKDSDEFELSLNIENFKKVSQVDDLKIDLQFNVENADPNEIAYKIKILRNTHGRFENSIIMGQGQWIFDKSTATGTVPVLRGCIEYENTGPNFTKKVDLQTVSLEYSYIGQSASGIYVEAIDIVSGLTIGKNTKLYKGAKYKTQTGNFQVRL
T1 sequence (P47064 whole entry, chain 4 of 4, the tested form may be a part): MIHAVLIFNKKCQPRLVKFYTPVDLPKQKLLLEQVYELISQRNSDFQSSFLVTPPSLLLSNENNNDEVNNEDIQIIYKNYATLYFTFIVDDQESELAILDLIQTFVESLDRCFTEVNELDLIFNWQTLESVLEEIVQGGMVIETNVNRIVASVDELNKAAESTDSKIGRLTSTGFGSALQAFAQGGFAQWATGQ

B1: Vam3 (yeast vacuolar SNARE, AP-3 cargo with dileucine motif) (natural protein, UniProt Q12241 1-283, looked up)
chain: MSFFDIEAQSSKGNSQQEPQFSTNQKTKELSNLIETFAEQSRVLEKECTKIGSKRDSKELRYKIETELIPNCTSVRDKIESNILIHQNGKLSADFKNLKTKYQSLQQSYNQRKSLFPLKTPISPGTSKERKDIHPRTEAVRQDPESSYISIKVNEQSPLLHNEGQHQLQLQEEQEQQQQGLSQEELDFQTIIHQERSQQIGRIHTAVQEVNAIFHQLGSLVKEQGEQVTTIDENISHLHDNMQNANKQLTRADQHQRDRNKCGKVTLIIIIVVCMVVLLAVLS
notes: Vam3, yeast SNARE; transmembrane domain aa 263–283; source: reconstituted into proteoliposomes or polymer-supported membranes
Consider B1, for which the binding result in test [1] was “binds”.

B2: Vam3 labelled with Atto 647N (natural protein, yeast, UniProt Q12241 1-283, looked up)
chain: MSFFDIEAQSSKGNSQQEPQFSTNQKTKELSNLIETFAEQSRVLEKECTKIGSKRDSKELRYKIETELIPNCTSVRDKIESNILIHQNGKLSADFKNLKTKYQSLQQSYNQRKSLFPLKTPISPGTSKERKDIHPRTEAVRQDPESSYISIKVNEQSPLLHNEGQHQLQLQEEQEQQQQGLSQEELDFQTIIHQERSQQIGRIHTAVQEVNAIFHQLGSLVKEQGEQVTTIDENISHLHDNMQNANKQLTRADQHQRDRNKCGKVTLIIIIVVCMVVLLAVLS
modifications: Atto 647N (Maleimide)
notes: Vam3, yeast SNARE; also called prelabeled transmembrane cargo; source: reconstituted into polymer-supported membranes
For the molecule B2, in test [2], the binding result is “binds”.
